{"source": "patent US20160333062A1", "about": "(REGENTS OF THE UNIVERSITY OF COLORADO A BODY CORPORATE, published 2016)", "proteins": {"B1": {"name": "Control C (peptide)", "peptide": "Ac-ELEKGGLEGEKGGKELEK-NH2", "notes": "also called control peptide C; random coil control peptide (C)"}, "B2": {"name": "D-Piscidin 1 V12K (peptide)", "peptide": "[dF][dF][dH][dH][dI][dF][dR]G[dI][dV][dH][dK]G[dK][dT][dI][dH][dR][dL][dV][dT]G-NH2", "modifications": "N-terminus assumed", "SMILES": "CC[C@@H](C)[C@@H](NC(=O)CNC(=O)[C@@H](CCCNC(=N)N)NC(=O)[C@@H](Cc1ccccc1)NC(=O)[C@H](NC(=O)[C@@H](Cc1c[nH]cn1)NC(=O)[C@@H](Cc1c[nH]cn1)NC(=O)[C@@H](Cc1ccccc1)NC(=O)[C@H](N)Cc1ccccc1)[C@H](C)CC)C(=O)N[C@@H](C(=O)N[C@H](Cc1c[nH]cn1)C(=O)N[C@H](CCCCN)C(=O)NCC(=O)N[C@H](CCCCN)C(=O)N[C@@H](C(=O)N[C@@H](C(=O)N[C@H](Cc1c[nH]cn1)C(=O)N[C@H](CCCNC(=N)N)C(=O)N[C@H](CC(C)C)C(=O)N[C@@H](C(=O)N[C@@H](C(=O)NCC(N)=O)[C@H](C)O)C(C)C)[C@H](C)CC)[C@H](C)O)C(C)C", "notes": "Synthetic all-D analog"}, "B3": {"name": "D-Dermaseptin S4 L7K, A14K (peptide)", "peptide": "[dA][dL][dW][dM][dT][dL][dK][dK][dK][dV][dL][dK][dA][dK][dA][dK][dA][dL][dN][dA][dV][dL][dV]G[dA][dN][dA]-NH2", "modifications": "N-terminus assumed", "SMILES": "CSCC[C@@H](NC(=O)[C@@H](Cc1c[nH]c2ccccc12)NC(=O)[C@@H](CC(C)C)NC(=O)[C@@H](C)N)C(=O)N[C@@H](C(=O)N[C@H](CC(C)C)C(=O)N[C@H](CCCCN)C(=O)N[C@H](CCCCN)C(=O)N[C@H](CCCCN)C(=O)N[C@@H](C(=O)N[C@H](CC(C)C)C(=O)N[C@H](CCCCN)C(=O)N[C@H](C)C(=O)N[C@H](CCCCN)C(=O)N[C@H](C)C(=O)N[C@H](CCCCN)C(=O)N[C@H](C)C(=O)N[C@H](CC(C)C)C(=O)N[C@H](CC(N)=O)C(=O)N[C@H](C)C(=O)N[C@@H](C(=O)N[C@H](CC(C)C)C(=O)N[C@@H](C(=O)NCC(=O)N[C@H](C)C(=O)N[C@H](CC(N)=O)C(=O)N[C@H](C)C(N)=O)C(C)C)C(C)C)C(C)C)[C@H](C)O", "notes": "Synthetic all-D analog; also called D-Dermaseptin S4 L7K, A14K (27-mer)"}, "B4": {"name": "D-Dermaseptin S4 L7K (peptide)", "peptide": "[dA][dL][dW][dM][dT][dL][dK][dK][dK][dV][dL][dK][dA][dA][dA][dK][dA][dL][dN][dA][dV][dL][dV]G[dA][dN][dA]-NH2", "modifications": "N-terminus assumed", "SMILES": "CSCC[C@@H](NC(=O)[C@@H](Cc1c[nH]c2ccccc12)NC(=O)[C@@H](CC(C)C)NC(=O)[C@@H](C)N)C(=O)N[C@@H](C(=O)N[C@H](CC(C)C)C(=O)N[C@H](CCCCN)C(=O)N[C@H](CCCCN)C(=O)N[C@H](CCCCN)C(=O)N[C@@H](C(=O)N[C@H](CC(C)C)C(=O)N[C@H](CCCCN)C(=O)N[C@H](C)C(=O)N[C@H](C)C(=O)N[C@H](C)C(=O)N[C@H](CCCCN)C(=O)N[C@H](C)C(=O)N[C@H](CC(C)C)C(=O)N[C@H](CC(N)=O)C(=O)N[C@H](C)C(=O)N[C@@H](C(=O)N[C@H](CC(C)C)C(=O)N[C@@H](C(=O)NCC(=O)N[C@H](C)C(=O)N[C@H](CC(N)=O)C(=O)N[C@H](C)C(N)=O)C(C)C)C(C)C)C(C)C)[C@H](C)O", "notes": "Synthetic all-D analog; also called D-Dermaseptin S4 L7K (27-mer)"}, "B5": {"name": "D-Piscidin 1 G13K (peptide)", "peptide": "[dF][dF][dH][dH][dI][dF][dR]G[dI][dV][dH][dV][dK][dK][dT][dI][dH][dR][dL][dV][dT]G-NH2", "modifications": "N-terminus assumed", "SMILES": "CC[C@@H](C)[C@@H](NC(=O)CNC(=O)[C@@H](CCCNC(=N)N)NC(=O)[C@@H](Cc1ccccc1)NC(=O)[C@H](NC(=O)[C@@H](Cc1c[nH]cn1)NC(=O)[C@@H](Cc1c[nH]cn1)NC(=O)[C@@H](Cc1ccccc1)NC(=O)[C@H](N)Cc1ccccc1)[C@H](C)CC)C(=O)N[C@@H](C(=O)N[C@H](Cc1c[nH]cn1)C(=O)N[C@@H](C(=O)N[C@H](CCCCN)C(=O)N[C@H](CCCCN)C(=O)N[C@@H](C(=O)N[C@@H](C(=O)N[C@H](Cc1c[nH]cn1)C(=O)N[C@H](CCCNC(=N)N)C(=O)N[C@H](CC(C)C)C(=O)N[C@@H](C(=O)N[C@@H](C(=O)NCC(N)=O)[C@H](C)O)C(C)C)[C@H](C)CC)[C@H](C)O)C(C)C)C(C)C", "notes": "Synthetic all-D analog; also called D-Piscidin G13K"}, "B6": {"name": "D-Piscidin 1 (peptide)", "peptide": "[dF][dF][dH][dH][dI][dF][dR]G[dI][dV][dH][dV]G[dK][dT][dI][dH][dR][dL][dV][dT]G-NH2", "modifications": "N-terminus assumed", "SMILES": "CC[C@@H](C)[C@@H](NC(=O)CNC(=O)[C@@H](CCCNC(=N)N)NC(=O)[C@@H](Cc1ccccc1)NC(=O)[C@H](NC(=O)[C@@H](Cc1c[nH]cn1)NC(=O)[C@@H](Cc1c[nH]cn1)NC(=O)[C@@H](Cc1ccccc1)NC(=O)[C@H](N)Cc1ccccc1)[C@H](C)CC)C(=O)N[C@@H](C(=O)N[C@H](Cc1c[nH]cn1)C(=O)N[C@@H](C(=O)NCC(=O)N[C@H](CCCCN)C(=O)N[C@@H](C(=O)N[C@@H](C(=O)N[C@H](Cc1c[nH]cn1)C(=O)N[C@H](CCCNC(=N)N)C(=O)N[C@H](CC(C)C)C(=O)N[C@@H](C(=O)N[C@@H](C(=O)NCC(N)=O)[C@H](C)O)C(C)C)[C@H](C)CC)[C@H](C)O)C(C)C)C(C)C", "notes": "also called native D-Piscidin 1"}, "B7": {"name": "D-Piscidin 1 I9K (peptide)", "peptide": "[dF][dF][dH][dH][dI][dF][dR]G[dK][dV][dH][dV]G[dK][dT][dI][dH][dR][dL][dV][dT]G-NH2", "modifications": "N-terminus assumed", "SMILES": "CC[C@@H](C)[C@@H](NC(=O)[C@@H](Cc1c[nH]cn1)NC(=O)[C@@H](Cc1c[nH]cn1)NC(=O)[C@@H](Cc1ccccc1)NC(=O)[C@H](N)Cc1ccccc1)C(=O)N[C@H](Cc1ccccc1)C(=O)N[C@H](CCCNC(=N)N)C(=O)NCC(=O)N[C@H](CCCCN)C(=O)N[C@@H](C(=O)N[C@H](Cc1c[nH]cn1)C(=O)N[C@@H](C(=O)NCC(=O)N[C@H](CCCCN)C(=O)N[C@@H](C(=O)N[C@@H](C(=O)N[C@H](Cc1c[nH]cn1)C(=O)N[C@H](CCCNC(=N)N)C(=O)N[C@H](CC(C)C)C(=O)N[C@@H](C(=O)N[C@@H](C(=O)NCC(N)=O)[C@H](C)O)C(C)C)[C@H](C)CC)[C@H](C)O)C(C)C)C(C)C", "notes": "Synthetic all-D analog; also called D-Piscidin I9K"}}, "key": {"[1]": {"biological_target": "the molecule itself", "assay": "RP-HPLC temperature profiling, 5 to 80 C, pH 2 (self-association)", "experimental": "(§1) The purity of the peptides was verified by analytical RP-HPLC and the peptides were characterized by mass spectrometry (LC/MS). Crude and purified peptides were analyzed on an Agilent 1100 series liquid chromatograph (Little Falls, Del., USA). Analytical runs were performed on a Zorbax 300 SB-C₈ column (150×2.1 mm I.D.; 5 μm particle size, 300 Å pore size) from Agilent Technologies using a linear AB gradient (1% acetonitrile/min) and a flow rate of 0.25 mL/min, where eluent A was 0.2% aqueous TFA, pH 2, and eluent B was 0.18% TFA in acetonitrile. Temperature profiling analyses were performed on the same column in 3° C. increments, from 5° C. to 80° C. using a linear AB gradient of 0.5% acetonitrile/min.\nControl peptide C is a monomeric random coil peptide in both aqueous and hydrophobic media; thus, its linear decrease in peptide retention behavior with increasing temperature within the range of 5° C. to 80° C. represents only the general effects of temperature due to greater solute diffusivity and enhanced mass transfer between the stationary and mobile phase at higher temperatures. To allow for these general temperature effects, the data for the control peptide was subtracted from each temperature profile, as shown in FIG. 6B. Thus, the peptide self-association parameter, PA, represents the maximum change in peptide retention time relative to the random coil peptide C. […]"}, "[2]": {"biological_target": "the molecule itself", "assay": "RP-HPLC temperature profiling, self-association (dimerization/oligomerization)", "experimental": "as §1\n^atR denotes retention time in RP-HPLC at pH 2 and room temperature, and is a measure of overall peptide hydrophobicity. ^bThe mean residue molar ellipticities [θ]₂₂₂ (deg cm²/dmol) at wavelength 222 nm were measured at 5° C. in benign conditions (100 mM KCl, 50 mM NaH₂PO₄/Na₂HPO₄, pH 7.0) or in benign buffer containing 50% trifluoroethanol (TFE) by circular dichroism spectroscopy. ^cThe helical content (as a percentage) of a peptide relative to the molar ellipticity value of parent peptide (D-Piscidin 1 or D-Dermaseptin S4) in the presence of 50% TFE. ^dPA denotes self-association parameter (dimerization/oligomerization) of each peptide during RP-HPLC temperature profiling, which is the maximal retention time difference of (tR^t-tR⁵ for peptide analogs)-(tR^t-tR⁵ for control peptide C) within the temperature range; tR^t-tR⁵ is the retention time difference of a peptide at a specific temperature (tR^{t)} compared with that at 5° C. (tR⁵). The sequence of the random coil control peptide C is shown in Table 1. ^eAmphipathicity was determined by calculation of hydrophobic moment using hydrophobicity coefficients determined by reversed-phase chromatography; see methods for details. The amphipathicity values for D-Dermaseptin S4 and its analogs (residues 1-14) are shown in brackets."}}, "note": "Non-standard residues stand in square brackets, D forms with d. No end group written: not given here."}
{"protein": "B1", "values": [{"measurement": "binding result", "setting": "[1]", "result": "no binding"}]}
{"protein": "B2", "values": [{"measurement": "PA (self-association parameter)", "setting": "[2]", "result": 0.69, "unit": "min"}]}
{"protein": "B3", "values": [{"measurement": "PA (self-association parameter)", "setting": "[2]", "result": 2.29, "unit": "min"}]}
{"protein": "B4", "values": [{"measurement": "PA (self-association parameter)", "setting": "[2]", "result": 4.8, "unit": "min"}]}
{"protein": "B5", "values": [{"measurement": "PA (self-association parameter)", "setting": "[2]", "result": 0.95, "unit": "min"}]}
{"protein": "B6", "values": [{"measurement": "PA (self-association parameter)", "setting": "[2]", "result": 0.78, "unit": "min"}]}
{"protein": "B7", "values": [{"measurement": "PA (self-association parameter)", "setting": "[2]", "result": 1.29, "unit": "min"}]}
